Test results reported in patent publication US10640563B2, “Anti-B7-H3 antibodies and antibody drug conjugates” (AbbVie Inc., priority 2016, dated 2020).
Marks after values point to notes of the source that are not given here.

How the values were obtained:
EBC1 = experiment: In vivo xenograft model of non-small cell lung cancer EBC1; conditions: 7.5 mg/kg/day, QDx1/IV
Protocol: (§1) The anti-tumor activity was assessed as monotherapy and in combination with docetaxel (H1650, H1299, H1975, and EBC1).

H1975 = experiment: In vivo xenograft model of non-small cell lung cancer H1975; conditions: NCI-H1975; 7.5 mg/kg/day, QDx1/IV
Protocol: as §1

H1299 = experiment: In vivo xenograft model of non-small cell lung cancer H1299; conditions: NCI-H1299; 7.5 mg/kg/day, QDx1/IV
Protocol: as §1

H1650 = experiment: In vivo xenograft model H1650; set-up: species or system mouse; conditions: NCI-H1650, 7.5 mg/kg/day
H847 cells = experiment: Cell cytotoxicity of ADCs in H847 cells; type: cell-based; conditions: Table 17; CZ conjugates; read-out: Cytotoxicity (H847 Cell line IC50)
Text: These new anti-B7-H3 antibodies were further characterized for binding by SPR and conjugated to the Bcl-xLi synthon CZ and assessed for cell cytotoxicity (using the methods described in Example 7).

NCI-H146 cells = experiment: In vivo xenograft model of small cell lung cancer (NCI-H146); set-up: species or system mice; conditions: Table 23; 6 mg/kg/IP/QDx1
[1] = Aggregation of conjugates by SEC; type: physicochemical; conditions: Table 17; CZ conjugates of huAb3v2 variants
B7-H3 = biological target: T1, B7-H3 (Homo sapiens, UniProt Q5ZPR3); experiment: Affinity of naked mAbs by SPR (Biacore); type: binding; conditions: Table 17
T1 construct: His tag (6xHis) (C); made in house
T1 sequence (Q5ZPR3 with tags, fused parts or gaps): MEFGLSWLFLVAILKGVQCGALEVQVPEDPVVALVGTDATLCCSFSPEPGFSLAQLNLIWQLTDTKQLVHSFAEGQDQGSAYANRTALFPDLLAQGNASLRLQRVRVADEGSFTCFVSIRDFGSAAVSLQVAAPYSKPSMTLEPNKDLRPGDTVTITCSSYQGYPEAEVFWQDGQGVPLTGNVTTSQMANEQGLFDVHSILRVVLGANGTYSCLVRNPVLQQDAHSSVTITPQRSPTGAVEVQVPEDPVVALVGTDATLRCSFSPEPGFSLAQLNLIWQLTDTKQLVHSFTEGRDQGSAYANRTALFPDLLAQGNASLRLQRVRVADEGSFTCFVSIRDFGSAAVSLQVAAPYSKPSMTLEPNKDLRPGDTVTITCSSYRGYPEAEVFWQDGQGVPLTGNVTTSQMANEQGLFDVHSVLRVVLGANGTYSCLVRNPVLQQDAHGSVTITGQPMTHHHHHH
Protocol: The parental chAb18 from which the variants were derived was also tested as a comparator.

[2] = tested on: soluble ECD of cyno B7-H3; experiment: Biacore T200 SPR binding kinetics, mAb capture; set-up: species or system cynomolgus monkey; conditions: Biacore T200, Fc capture of mAb, B7-H3 ECD as analyte, 1:1 binding model
Chain of soluble ECD of cyno B7-H3 (as listed by the source): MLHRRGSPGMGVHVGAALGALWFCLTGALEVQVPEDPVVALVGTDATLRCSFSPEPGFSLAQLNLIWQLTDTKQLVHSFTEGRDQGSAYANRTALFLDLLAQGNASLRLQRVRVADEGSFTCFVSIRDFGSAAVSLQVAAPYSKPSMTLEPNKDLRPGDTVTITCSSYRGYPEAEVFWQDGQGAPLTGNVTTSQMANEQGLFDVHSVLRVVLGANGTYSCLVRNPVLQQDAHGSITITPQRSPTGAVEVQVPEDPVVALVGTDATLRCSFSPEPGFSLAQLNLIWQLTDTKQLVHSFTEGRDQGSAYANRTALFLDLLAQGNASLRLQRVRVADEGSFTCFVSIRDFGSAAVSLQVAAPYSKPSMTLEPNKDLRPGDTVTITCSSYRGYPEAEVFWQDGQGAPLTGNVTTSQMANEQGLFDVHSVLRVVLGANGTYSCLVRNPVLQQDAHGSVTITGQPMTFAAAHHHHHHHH

mouse B7-H3 = biological target: T2, mouse B7-H3 (Mus musculus, UniProt Q8VE98); experiment: FACS binding to mouse 3T12 fibroblasts expressing mouse B7-H3; conditions: purified mouse hybridoma mAb; cells expressing mouse B7-H3
T2 construct: expressed in transfected cells; host or cells: mouse 3T12 fibroblasts
T2 sequence (Q8VE98 29-316): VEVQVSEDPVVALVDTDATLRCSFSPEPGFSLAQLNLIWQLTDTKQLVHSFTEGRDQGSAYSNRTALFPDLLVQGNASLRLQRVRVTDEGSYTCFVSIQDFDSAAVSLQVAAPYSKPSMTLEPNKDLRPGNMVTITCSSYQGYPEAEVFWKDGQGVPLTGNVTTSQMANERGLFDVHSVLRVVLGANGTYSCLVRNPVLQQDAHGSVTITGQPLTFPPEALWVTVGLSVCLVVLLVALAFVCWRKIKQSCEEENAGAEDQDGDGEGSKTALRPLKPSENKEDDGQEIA

[3] = biological target: T3, soluble ECD of human B7-H3 (Homo sapiens, UniProt Q5ZPR3); experiment: Biacore T200 SPR binding kinetics, mAb capture; conditions: Biacore T200, Fc capture of mAb, B7-H3 ECD as analyte, 1:1 binding model
T3 construct: His tag (6xHis) (C); made in house
T3 sequence (Q5ZPR3 with tags, fused parts or gaps): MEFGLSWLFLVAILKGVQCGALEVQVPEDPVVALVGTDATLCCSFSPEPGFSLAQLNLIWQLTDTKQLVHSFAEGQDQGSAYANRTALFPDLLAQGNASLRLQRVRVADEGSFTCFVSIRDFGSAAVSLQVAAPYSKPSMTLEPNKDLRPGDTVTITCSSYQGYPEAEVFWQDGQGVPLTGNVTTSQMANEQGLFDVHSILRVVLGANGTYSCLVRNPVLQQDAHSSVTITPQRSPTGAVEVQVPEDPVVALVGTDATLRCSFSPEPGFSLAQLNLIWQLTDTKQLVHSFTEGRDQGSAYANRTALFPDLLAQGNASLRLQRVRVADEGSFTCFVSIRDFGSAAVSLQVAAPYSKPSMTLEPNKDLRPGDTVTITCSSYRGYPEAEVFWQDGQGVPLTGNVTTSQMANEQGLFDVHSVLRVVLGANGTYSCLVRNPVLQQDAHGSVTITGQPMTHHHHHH
Protocol: The binding affinity of the purified anti-B7-H3 monoclonal antibodies was determined by surface […]. […] The binding kinetics were derived from SPR measurements using a Biacore T200 instrument and a mAb capture approach (as described in the materials and methods below).
Biacore T200 SPR instruments were used to measure the binding kinetics of human B7-H3 (analyte) binding to various mAbs (ligands). The assay format was Fc-based capture via immobilized anti-mouse (Fc) (Pierce 31170) or immobilized anti-human (Fc) (Pierce 31125). A standard amine coupling protocol was employed to immobilize the capture reagents via primary amines to the carboxy-methyl (CM) dextran surface of CM5 sensorchips (Biacore); capture antibodies were coupled to a level of approximately 5000 RU. For binding kinetic measurements the assay buffer was HBS-EP+ (Biacore): 10 mM Hepes, pH7.4, 150 mM NaCl, 3 mM EDTA, 0.05% polysorbate 20. During the assay, all measurements were referenced against the capture surface alone. Each assay cycle consisted of the following steps: 1) Capture of ligand to approximately 50 RU; 2) Analyte injection over both reference and test surface, 240 μL at 80 μL/min, after which the dissociation was monitored for 900 seconds at 80 μL/min; 3) Regeneration of capture surface with low pH glycine. For kinetic determinations analyte injections were 3-point, 9-fold dilution series of 900 nM, 100 nM and 11.11 nM, buffer only injections were included for secondary referencing. Data were processed and fit to a 1:1 binding model using Biacore T200 Evaluation Software to determine the binding kinetic rate constants, ka (on-rate) and kd (off-rate), and the equilibrium dissociation constant (affinity, KD).

CC(=O)O[C@@]12CO[C@@H]1C[C@H](O)[C@@]1(C)C(=O)[C@H](O)C3=C(C)[C@@H](OC(=O)[C@H](O)[C@@H](NC(=O)OC(C)(C)C)c4ccccc4)C[C@@](O)([C@@H](OC(=O)c4ccccc4)[C@H]21)C3(C)C [Docetaxel]
TGD (%) (EBC1): 80%
TGImax (%) (EBC1): 85%
TGD (%) (H1975): 77%
TGImax (%) (H1975): 81%
TGD (%) (H1299): 48%
TGImax (%) (H1299): 87%
TGD (%) (H1650; IV/Q14Dx3): 158* %
TGImax (%) (H1650; IV/Q14Dx3): 80* %
TGD (%) (H1650; QDx1/IV): 143%
TGImax (%) (H1650; QDx1/IV): 84%

B1: huAb3v2.9-CZ (conjugate)
VH: EVQLVQSGAEVKKPGSSVKVSCKASGYTFSSYWMHWVRQAPGQGLEWIGLIHPISGSTNYNEMFKNRATLTVDRSTSTAYMELSSLRSEDTAVYYCAGGGRLYFDYWGQGTTVTVSS
VL: DIVMTQSPLSLPVTPGEPASISCRSSQSLVHSNQDTYLRWYLQKPGQSPQLLIYKVSNRFSGVPDRFSGSGSGTDFTLKISRVEAEDVGVYYCSQSTHVPYTFGGGTKVEIK
IC50 (H847 cells): 2.3 nM
TGD (%) (NCI-H146 cells): 135%
TGImax (%) (NCI-H146 cells): 94%
% agg by SEC [1]: 4.3%
Affinity of naked mAbs (Biacore, KD) (B7-H3): Poor fit

B2: Ab18: murine monoclonal Ab18 (antibody, V domains shown)
VH: QVQLQQSAAELARPGASVKMSCKASGYSFTSYTIHWVKQRPGQGLEWIGYINPNSRNTDYNQKFKDETTLTADRSSSTAYMQLISLTSEDSAVYYCARYSGSTPYWYFDVWGAGTTVTVSS
VL: QIVLTQSPAILSASPGEKVTMTCRASSSVSYMNWYQQKPGSSPKPWIYATSNLASGVPARFSVSVSGTSHSLTISRVEAEDAATYYCQQWSSNPLTFGAGTKLELK
cynoB7-H3 ka [2]: 240000 M⁻¹ s⁻¹
cynoB7-H3 kd [2]: 2.9e-05 s⁻¹
FACS Binding (EC50 nM) Mouse B7-H3 (mouse B7-H3): No binding
huB7-H3 ka [3]: 210000 M⁻¹ s⁻¹
huB7-H3 kd [3]: 3.6e-05 s⁻¹

B3: Ab6 (antibody, V domains shown)
VH: QVQLQQSGAELMKPGASVKISCKATGYTFSRYWIEWVKQRPGHGLEWIGEILPGSGSTNYNEKFKGKATFTADTSSNTAYMQVSSLTSEDSAVHYCARRGYGYVPYALDYWGQGTSVTVSS
VL: EIQMTQTTSSLSASLGDRVTISCRASQDISNSLNWYQQKPDGTVNLLIYYTSRLYSGVPSRFSGSGSGTDYSLTISNLEQEDIATYFCQQGNTLPYTFGGGTKLEIK
cynoB7-H3 ka [2]: 28000 M⁻¹ s⁻¹
cynoB7-H3 kd [2]: 0.012 s⁻¹
FACS Binding (EC50 nM) Mouse B7-H3 (mouse B7-H3): No binding
huB7-H3 ka [3]: 12000 M⁻¹ s⁻¹
huB7-H3 kd [3]: 0.01 s⁻¹
